According to US20080267971A1 (published 2008):

B1: mAb 5.52.1 (antibody, V domains shown)
VH: QVQLVESGGGVVQPGRSLRLSCAASGFTFSSYGMHWVRQAPGKGLEWVAVRWYDESNKYYADSVKGRFTISRDNSKNTLYLQMNSLRAEDTAVYYCARDPFETGTTFDYWGQGTLVTVSS
VL: DIQMTQSPSSVSASVGDRVTITCRASQGISSWLAWYQQKPGKAPKLLIYAVSSLESGVPSRFSGSGSGTDFTLTISSLQPEDFATYYCQQALTFGGGTKVEIKR
notes: Human hybridoma IgG (XenoMouse); the line 5.52 has entries of its own (347, 349; light chain L2) that differ from the clone 5.52.1 (L5); also called x5.52
B2: mAb 5.86.1 (antibody, V domains shown)
VH: QVQLVQSGAEVKKPGASVKVSCKASGYTFTGYHMYWVRQAPGQGLEWLGWINPNSGGTNYAQKFQGRVTMTRDTSISTAYMELSRLRSDDTAVYYCVRDQGIAAAGPFDYWCQGTLVTVSS
VL: DIRMTQSPSSLSASVGDRVTITCRASQRISTYLNWYQQKPGKAPKFLIYAASSLQSGVPSRFSGSGSGTDFTLTISSLQPEDFATYYCQQSYTTPFTFGPGTKVDIKR
notes: Human hybridoma IgG (XenoMouse); also called x5.86
B3: mAb 5.103.1 (antibody, V domains shown)
VH: QVQLVQSGAEVKKPGASVKVSCKASGYTFTGYYLYWVPQAPGQGLEWMGWISPNSGGTNYAQKFQGRVTMTRDTSISTAYMELSRLRSDDTAVYYCARDQVIAVAGPFDYWAQGTLVTVSS
VL: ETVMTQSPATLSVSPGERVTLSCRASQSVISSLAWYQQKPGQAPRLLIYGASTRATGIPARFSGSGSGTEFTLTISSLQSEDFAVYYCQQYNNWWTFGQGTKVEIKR
notes: Human hybridoma IgG (XenoMouse); also called 5.103.3; x5.103
B4: mAb 5.28.1 (antibody, V domains shown)
VH: EVQLVESGGIVVQPGGSLRLSCAASGFTFDDYTMHWVRQTPGKGLEWVSLISWDGGSTYYADSVKGRFTISRDNSKNSLYLQMNSLRTEDTALYYCAKDIDIAVAGTGFDHWGQGTLVTVSS
VL: EIVMTQSPATLSVSPGERATLSCRASQSVTSNLAWYQQKPGQAPRLLIYGALIRATGIPARFSGSGSGTEFTLTISSLQSEDFAVYYCQQYNNWPFTFGPGTKVDIKR
notes: Human hybridoma IgG (XenoMouse); also called x5.28
B5: mAb 5.35.1 (antibody, V domains shown)
VH: EVQLVESGGGVVRPGGSLRLSCTTSGFTFDDYGMSWVRQAPGKGLEWVSGINWNGGSTVYADSVKGRFTISRDSAKNSLYLQMNSLRAEDTALYHCARNKQWLWYFDLWGRGTLVTVSS
VL: EIVMTQSPATLSVSPGERATLSCRASQSVSSNLAWYQQKPGQAPRLLIYGASTRATGIPARFSGSGSGTEFTLTISSLQSEDFAVYYCEQYNNWPLTFGGGTKVEIKR
notes: Human hybridoma IgG (XenoMouse); also called x5.35
B6: mAb 3.19.3 (antibody, V domains shown)
VH: QVQLVESGGGVVQPGRSLRLSCAASGFTFTNYGMHWGRQAPGKGLEWVAVISHDGNNKYYVDSVKGRFTISRDNSKNTLYLQMNSLRAEDTAVYYCAREGIDFWSGLNWFDPWGQGTLVTVSS
VL: EIVLTQSPGTLSLSPGERATLSCRASQSITGSYLAWYQQKPGQAPRLLICGASSWATGIPDRFSGSGSGTDFTLTISRLEPEDFAVYYCQQYSSSPITFGQGTRLEIKR
notes: Human hybridoma IgG (XenoMouse); also called x3.19
B7: mAb 5.101.1 (antibody, V domains shown)
VH: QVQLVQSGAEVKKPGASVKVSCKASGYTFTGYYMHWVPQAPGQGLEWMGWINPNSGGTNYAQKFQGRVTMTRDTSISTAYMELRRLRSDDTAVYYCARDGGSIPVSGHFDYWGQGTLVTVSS
VL: EIVMTQSPATLSVSPGERATLSCRASQSLISNLAWYQQKPGQAPRLLIFGASTRATGIPARFSGSGSGTEFTLTISSLQSEDFAVYYCHQYNNWWTFGQGTKVEIKR
notes: Human hybridoma IgG (XenoMouse); also called x5.101
B8: mAb 3.31.2 (antibody, V domains shown)
VH: EVQLVESGGGLVQPGGSLRLSCAASGFTFSSYWMSWVRQAPGKGLEWVANIKQDGSDKYYVDSVKGRFTISRDNAKNSLYLRMNSLRAEDTAVFYCARDMGSGWFDYWGQGTLVTVSS
VL: EVVMTQSPATLSVSPGERATLSCRASQSVGSNLAWYQQKPGQAPRLLIYGASTRATGIPARFSGSGSGTEFTLTISSLQSEDFAVYCCQQYNHWWTFGQGTKVEIKR
notes: Human hybridoma IgG (XenoMouse); also called x3.31
B9: mAb 5.88.3 (antibody, V domains shown)
VH: EVQMVESGGGLVQPGGSLRLSCAASGFTLRSYWMSWVRQAPGKGLEWVANIKEDGSEKYHVDSVKGRFTISRDNAENSLFLQMSSLRAEDTAVYYCARDMEASAGLFDYWGQGTLVTVSS
VL: EIVMTQSPATLSVSPGERAILSCRASQSISSNLAWYQQKPGQAPRLLIYGASTRATGIPARFSGSGSGTEFTLTISSLQSEDFAVYYCQQYNYWWTFGQGTKVEIKR
notes: Human hybridoma IgG (XenoMouse); also called x5.88
B10: mAb 3.3.2 (antibody, V domains shown)
VH: EVQLVESGGGLVQPGGSLRLSCAVSGFTFSSYWMSWVRQAPGKGLEWVANIKQDGSEKYYVDSVKGRFTISRDNAKNSLYLQMNSLRAEDTAVYYCARDQGIAVAGPFDYWGQGTLVTVSS
VL: EIVMTQSPATLSVSPGERATLSCRASQTVSSDLAWYQQKPGQAPRLLIYGASIRATGIPARFSGSGSGTEFTLTISSLQSEDFAVYSCQQYYNWWTFGQGTKVEIKR
notes: Human hybridoma IgG (XenoMouse); also called 3.3.1; x3.3

How the values were obtained:
[1] = target: T1, human Angiopoietin-2 (human, UniProt O15123 19-496); experiment: Biacore; kd held constant (*); kd held constant in the fit, not measured
T1 construct: Mostly bought recombinant protein (R&D Systems 623-AM/CF, 623-AN; biotinylated BT623) or supernatant of transfected 293F cells; also called Ang-2; rhAng-2
T1 sequence: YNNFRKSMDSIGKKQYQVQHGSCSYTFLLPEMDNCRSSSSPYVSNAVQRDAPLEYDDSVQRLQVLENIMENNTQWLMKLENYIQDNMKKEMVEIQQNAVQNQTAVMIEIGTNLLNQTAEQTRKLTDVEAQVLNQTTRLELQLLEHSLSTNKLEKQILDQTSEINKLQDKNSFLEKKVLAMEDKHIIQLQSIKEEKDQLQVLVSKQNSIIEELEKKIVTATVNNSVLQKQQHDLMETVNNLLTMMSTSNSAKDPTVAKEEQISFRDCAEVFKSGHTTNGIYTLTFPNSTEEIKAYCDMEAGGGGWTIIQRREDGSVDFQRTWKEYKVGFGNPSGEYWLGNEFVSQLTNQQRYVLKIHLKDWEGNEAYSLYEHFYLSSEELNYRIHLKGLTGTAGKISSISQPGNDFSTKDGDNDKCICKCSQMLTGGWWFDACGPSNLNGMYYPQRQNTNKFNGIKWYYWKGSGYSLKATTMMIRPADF
Experimental: The label-free surface plasmon resonance (SPR), or Biacore, was utilized to measure the antibody affinity to the antigen. For this purpose, a high-density goat anti-human antibody surface over a CM5 Biacore chip was prepared using routine amine coupling. All the purified mAbs were diluted to approximately 8 μg/ml in HBS-P running buffer containing 100 μg/ml BSA and 10 mg/mL carboxymethyldextran. Each mAb was captured on a separate surface using a 42-second contact time, and a 5-minute wash for stabilization of the mAb baseline.
Data were fit globally to a 1:1 interaction model to determine the binding kinetics.

[2] = target: T1, human Angiopoietin-2; experiment: competition ELISA: biotin-Ang-2 on coated Tie2/Fc
Experimental: 96-well Nunc Immplates™ were coated with 100 μl of recombinant human Tie2/Fc fusion protein (R&D Systems, Inc., Cat. No. 313-TI-100) at 4 μg/ml by incubating overnight at 4° C. The plates were washed four times using Phosphate Buffer Saline (PBS) with a Skan™ Washer 300 station (SKATRON). The wells were blocked by 100 μl of ABX-blocking buffer (0.5% BSA, 0.1% Tween, 0.01% Thimerosal in PBS) for 1 hour.
The plates were incubated at room temperature for two hours before the unbound molecules were washed off. […] After washing twice, the bound Streptavidin was detected by HRP substrate (R&D Systems, Cat. No. DY998). The plates were incubated for 30 minutes before 450 stop solution (100 μl/well, BioFX, Cat# BSTP-0100-01) was added to terminate the reaction. The light absorbance at 450 nm was determined by a Spectramax Plus reader.
Each concentration of the mAb was tested in duplicate. The concentration-response relationship was found by curve fitting using Graphpad Prism™ graphic software (non-linear, Sigmoid curve). The maximal inhibition (efficacy) and IC₅₀ (potency) were calculated by the software.

[3] = target: T1, human Angiopoietin-2; experiment: cell-based or functional assay
[4] = target: T2, mouse Angiopoietin-2 (mouse, UniProt O35608 19-496); experiment: ELISA on plates coated with conditioned medium of HEK293F/mouse Ang-2 transfectants, mAb titrated, detection with anti-human Fc-HRP
T2 construct: Used as conditioned medium of transfectants; also called mAng-2; mouse Ang-2
T2 sequence: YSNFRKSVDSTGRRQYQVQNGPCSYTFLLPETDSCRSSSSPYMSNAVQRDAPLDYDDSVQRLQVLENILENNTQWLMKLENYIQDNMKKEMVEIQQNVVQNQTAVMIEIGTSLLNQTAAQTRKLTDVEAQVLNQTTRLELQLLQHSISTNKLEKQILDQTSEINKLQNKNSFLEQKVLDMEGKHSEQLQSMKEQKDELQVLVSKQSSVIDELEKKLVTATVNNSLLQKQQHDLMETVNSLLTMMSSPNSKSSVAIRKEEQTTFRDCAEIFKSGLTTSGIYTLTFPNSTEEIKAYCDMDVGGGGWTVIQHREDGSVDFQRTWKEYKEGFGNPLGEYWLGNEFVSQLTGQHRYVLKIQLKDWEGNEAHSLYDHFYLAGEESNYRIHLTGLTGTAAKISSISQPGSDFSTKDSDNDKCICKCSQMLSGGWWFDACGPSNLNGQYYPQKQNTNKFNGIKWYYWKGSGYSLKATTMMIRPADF
Experimental: The plates were incubated at 4° C. overnight, followed by washing four times using Phosphate Buffer Saline with a Skan Washer 300 station (SKATRON). The wells were blocked by 100 μl of ABX-block buffer (0.5% BSA, 0.1% Tween, 0.01% Thimerosal in PBS) for 1 hour. […] The mAbs and each of their dilutes were tested in duplicate. After washing twice, the bound mAbs were detected by goat anti-human Fc-HPPO-conjugated antibody (Caltag, Code H10507) at 1/1,000 dilution at room temperature for an hour. To set up the detecting chromagenic reaction, 100 μl of TMB substrate (TMB-microwell, BioFX, Cat. No. TMSK-1000-01) was added after washing the wells three times using PBS. The plates were incubated for 30 minutes before 650 stop solution (100 μl/well, BioFX, Cat. No. BSTP-0100-01) was added to terminate the reaction. The light absorbance at […] was determined by a Spectramax Plus reader.

[5] = target: T1, human Angiopoietin-2; experiment: Biacore, mAb immobilized, 8 h dissociation
[6] = target: T1, human Angiopoietin-2; experiment: high resolution Biacore, 1st experiment; kd held constant (*)
Experimental: The mAb was then immobilized on flow cells 1-3 (CM5 Biacore chip) using routine amine coupling, leaving flow cell 4 as the reference flow cell.
The antibody surfaces were regenerated with a 6-second pulse of 15 mM NaOH after each injection cycle.
The sample injections alternated with three blank injection cycles. Each surface was regenerated with a 6-second pulse of 15 mM NaOH after each long off-rate injection cycle.

| Binder | EC50 [2] [µg/mL] | Efficacy (ratio of bound Ang-2 with mAb 30 µg/ml versus without) [2] [ratio] | EC50, inhibition of Ang-2-induced Tie2 phosphorylation (HEK293F/Tie2, ELISA) [3] [µg/mL] | also measured |
| --- | --- | --- | --- | --- |
| B1 | – | – | – | koff [1]: ≤ 1e-05 s⁻¹ |
| B2 | 0.133 | 0.384 | 0.008 | – |
| B3 | 0.364 | 0.232 | 0.095 | – |
| B4 | 2.7 | 0.389 | – | binding result [4]: no binding (tested: 100 µg/ml) |
| B5 | – | – | – | Kd [5]: 3.31 pM; koff [5]: 1.87e-06 s⁻¹; kon [5]: 564000 M⁻¹ s⁻¹ |
| B6 | 0.798 | 0.395 | 0.006 | koff [6]: ~1e-06 s⁻¹; EC50 (read off the curve) [4]: ~1 µg/mL |
| B7 | 0.376 | 0.364 | 0.733 | – |
| B8 | 0.0417 | 0.375 | 0.043 | – |
| B9 | 0.156 | 0.403 | 0.016 | – |
| B10 | 0.168 | 0.388 | 0.046 | – |
